# IntAct's records for PubMed 34948388
# B1: Multifunctional methyltransferase subunit TRM112-like protein (Homo sapiens), Q9UI30 (parent)
# chain: MKLLTHNLLSSHVRGVGSRGFPLRLQATEVRICPVEFNPNFVARMIPKVEWSAFLEAADNLRLIQVPKGPVEGYEENEEFLRTMHHLLLEVEVIEGTLQCPESGRMFPISRGIPNMLLSEEETES
# partner: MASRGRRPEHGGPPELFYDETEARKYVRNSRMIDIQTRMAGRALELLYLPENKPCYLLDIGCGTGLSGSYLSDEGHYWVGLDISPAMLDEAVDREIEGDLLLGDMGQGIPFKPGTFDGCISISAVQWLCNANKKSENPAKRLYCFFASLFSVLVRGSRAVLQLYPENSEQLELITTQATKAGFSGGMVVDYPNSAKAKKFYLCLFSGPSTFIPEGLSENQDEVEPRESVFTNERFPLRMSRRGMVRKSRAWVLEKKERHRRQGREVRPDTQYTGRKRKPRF
# B2: Multifunctional methyltransferase subunit TRM112-like protein (Homo sapiens), Q9UI30 (parent)
# chain: B1 chain
# partner: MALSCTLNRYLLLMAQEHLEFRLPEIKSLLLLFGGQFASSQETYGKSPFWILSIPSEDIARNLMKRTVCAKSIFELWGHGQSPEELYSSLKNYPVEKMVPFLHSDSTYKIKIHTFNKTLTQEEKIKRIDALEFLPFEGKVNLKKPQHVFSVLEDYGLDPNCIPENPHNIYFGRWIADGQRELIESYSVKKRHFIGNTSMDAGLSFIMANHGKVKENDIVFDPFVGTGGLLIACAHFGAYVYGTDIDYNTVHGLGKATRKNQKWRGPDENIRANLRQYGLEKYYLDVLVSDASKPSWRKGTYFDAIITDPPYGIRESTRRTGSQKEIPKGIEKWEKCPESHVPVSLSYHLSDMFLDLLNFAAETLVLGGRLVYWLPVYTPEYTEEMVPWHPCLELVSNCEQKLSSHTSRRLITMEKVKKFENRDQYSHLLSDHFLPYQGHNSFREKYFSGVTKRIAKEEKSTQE
# Variants of: B1
# Conditions: with bud23_human BUD23, O43709
row,effect of a mutation on the interaction,Variant
1,with no effect,MKLLTHNLLSSHVRGVGSRGFPLRLQATEVRICPVEFNPNFVARAIPKVEWSAFLEAADNLRLIQVPKGPVEGYEENEEFLRTMHHLLLEVEVIEGTLQCPESGRMFPISRGIPNMLLSEEETES
2,with no effect,MKLLTHNLLSSHVRGVGSRGFPLRLQATEVRICPVEFNPNFVARMIPAVEWSAFLEAADNLRLIQVPKGPVEGYEENEEFLRTMHHLLLEVAVIEGTLQCPESGRMFPISRGIPNMLLSEEETES
3,decreasing interaction strength,MKLLAHNLLSSHVRGVGSRGFPLRLQATEVRICPVEFNPNFVARMIPKVEWSAFLEAADNLRLIQVPKGPVEGYEENEEFLRTMHHLLLEVEVIEGTLQCPESGRMFPISRGIPNMLLSEEETES
4,disrupting interaction strength,MKLLTHNLLSSHVRGVGSRGFPLRLQATEVRICPVEFNPNFVARMIPKVEWSAFLEAADNLRLIQVPKGPVEGYEENEEFLRTMHHLLLEVEVIEGTLQCPESGRMAPISRGIPNMLLSEEETES
5,with no effect,MKLLTHNLLSSHVRGVGSRGFPLRLQATEVRICPVEFNPNFVARMIPAVEWSAFLEAADNLRLIQVPKGPVEGYEENEEFLRTMHHLLLEVEVIEGTLQCPESGRMFPISRGIPNMLLSEEETES
6,with no effect,MKLLTHNWLSSHVRGVGSRGFPLRLQATEVRICPVEFNPNFVARMIPKVEWSAFLEAADNLRLIQVPKGPVEGYEENEEFLRTMHHLLLEVEVIEGTLQCPESGRMFPISRGIPNMLLSEEETES
7,with no effect,MKLLTHNLLSSHVRGVGSRGFPLRLQATEVRICPVEFNPNFVARMIPKVAWSAFLEAADNLRLIQVPKGPVEGYEENEEFLRTMHHLLLEVEVIEGTLQCPESGRMFPISRGIPNMLLSEEETES
8,with no effect,MKLLTHNLLFSHVRGVGSRGFPLRLQATEVRICPVEFNPNFVARMIPKVEWSAFLEAADNLRLIQVPKGPVEGYEENEEFLRTMHHLLLEVEVIEGTLQCPESGRMFPISRGIPNMLLSEEETES
9,with no effect,MKLLTHNLLSSHVRGVGSRGFPLRLQATEVRICPVEFNPNFVARMIPKVEWSAFLEAADNLRLIQVPKGPVEGYEENEEFLRTMHHLLLEVAVIEGTLQCPESGRMFPISRGIPNMLLSEEETES
10,with no effect,MKLLTHNLLSSHVRGVGSRGFPLRLQATEVRICPVEFNPNFVARMIPKVEWSAFLEAADNLRLIQVPKGPVEGYEENEEFLRTMHHLLLEVEVIEGTLQCPESGRMFPISRGAPNMLLSEEETES

# Variants of: B2
# Conditions: with trm11_human TRMT11, Q7Z4G4
row,effect of a mutation on the interaction,Variant
1,with no effect,MKLLTHNLLSSHVRGVGSRGFPLRLQATEVRICPVEFNPNFVARMIPKVEWSAFLEAADNLRLIQVPKGPVEGYEENEEFLRTMHHLLLEVEVIEGTLQCPESGRMFPISRGAPNMLLSEEETES
2,with no effect,MKLLTHNLLFSHVRGVGSRGFPLRLQATEVRICPVEFNPNFVARMIPKVEWSAFLEAADNLRLIQVPKGPVEGYEENEEFLRTMHHLLLEVEVIEGTLQCPESGRMFPISRGIPNMLLSEEETES
3,decreasing interaction strength,MKLLTHNLLSSHVRGVGSRGFPLRLQATEVRICPVEFNPNFVARMIPKVEWSAFLEAADNLRLIQVPKGPVEGYEENEEFLRTMHHLLLEVAVIEGTLQCPESGRMFPISRGIPNMLLSEEETES
4,with no effect,MKLLTHNLLSSHVRGVGSRGFPLRLQATEVRICPVEFNPNFVARMIPKVAWSAFLEAADNLRLIQVPKGPVEGYEENEEFLRTMHHLLLEVEVIEGTLQCPESGRMFPISRGIPNMLLSEEETES
5,decreasing interaction strength,MKLLTHNLLSSHVRGVGSRGFPLRLQATEVRICPVEFNPNFVARMIPKVEWSAFLEAADNLRLIQVPKGPVEGYEENEEFLRTMHHLLLEVEVIEGTLQCPESGRMAPISRGIPNMLLSEEETES
6,with no effect,MKLLTHNLLSSHVRGVGSRGFPLRLQATEVRICPVEFNPNFVARAIPKVEWSAFLEAADNLRLIQVPKGPVEGYEENEEFLRTMHHLLLEVEVIEGTLQCPESGRMFPISRGIPNMLLSEEETES
7,with no effect,MKLLTHNLLSSHVRGVGSRGFPLRLQATEVRICPVEFNPNFVARMIPAVEWSAFLEAADNLRLIQVPKGPVEGYEENEEFLRTMHHLLLEVEVIEGTLQCPESGRMFPISRGIPNMLLSEEETES
8,with no effect,MKLLTHNWLSSHVRGVGSRGFPLRLQATEVRICPVEFNPNFVARMIPKVEWSAFLEAADNLRLIQVPKGPVEGYEENEEFLRTMHHLLLEVEVIEGTLQCPESGRMFPISRGIPNMLLSEEETES
9,disrupting interaction strength,MKLLTHNLLSSHVRGVGSRGFPLRLQATEVRICPVEFNPNFVARMIPAVEWSAFLEAADNLRLIQVPKGPVEGYEENEEFLRTMHHLLLEVAVIEGTLQCPESGRMFPISRGIPNMLLSEEETES
